This note sets out measurements from PMC8280789.

Some targets named below: C4BP (human); C4b (human); C5b6 (human) (UniProt P13671); C7 (human) (UniProt P10643); C8 (human); C9 (human) (UniProt P02748); fibrinogen (human); laminin (human); plasminogen (human).
What all share (test): ELISA; dose-response: host component coated (1 μg/well); rLIC13086 at rising concentrations (0–5 μM in the methods; 0–0.5 μM or 0–5 μM in the legends), 2 h at 37°C; detected with HRP-conjugated anti-His mAb; KD from a non-linear fit of the specific binding equation (GraphPad Prism)
Test [1] concerns the target plasma fibronectin (human).

UniProt P02748, sequence (P02748 22-559): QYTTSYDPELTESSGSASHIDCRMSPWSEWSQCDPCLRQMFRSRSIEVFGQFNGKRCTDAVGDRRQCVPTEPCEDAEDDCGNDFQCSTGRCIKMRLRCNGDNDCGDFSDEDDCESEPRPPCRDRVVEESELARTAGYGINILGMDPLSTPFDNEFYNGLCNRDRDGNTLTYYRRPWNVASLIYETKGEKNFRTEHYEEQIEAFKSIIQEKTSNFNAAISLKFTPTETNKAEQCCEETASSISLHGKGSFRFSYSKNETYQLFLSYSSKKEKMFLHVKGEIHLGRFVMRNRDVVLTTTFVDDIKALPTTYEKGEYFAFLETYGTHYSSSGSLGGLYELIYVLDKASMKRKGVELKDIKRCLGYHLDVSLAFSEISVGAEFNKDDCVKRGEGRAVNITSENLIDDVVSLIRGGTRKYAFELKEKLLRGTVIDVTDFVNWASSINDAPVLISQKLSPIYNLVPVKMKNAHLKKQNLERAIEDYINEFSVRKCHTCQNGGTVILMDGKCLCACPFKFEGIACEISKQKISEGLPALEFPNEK
plasma fibronectin (human), sequence (P02751 other isoform, or with tags, fused parts or gaps, chain 1 of 2): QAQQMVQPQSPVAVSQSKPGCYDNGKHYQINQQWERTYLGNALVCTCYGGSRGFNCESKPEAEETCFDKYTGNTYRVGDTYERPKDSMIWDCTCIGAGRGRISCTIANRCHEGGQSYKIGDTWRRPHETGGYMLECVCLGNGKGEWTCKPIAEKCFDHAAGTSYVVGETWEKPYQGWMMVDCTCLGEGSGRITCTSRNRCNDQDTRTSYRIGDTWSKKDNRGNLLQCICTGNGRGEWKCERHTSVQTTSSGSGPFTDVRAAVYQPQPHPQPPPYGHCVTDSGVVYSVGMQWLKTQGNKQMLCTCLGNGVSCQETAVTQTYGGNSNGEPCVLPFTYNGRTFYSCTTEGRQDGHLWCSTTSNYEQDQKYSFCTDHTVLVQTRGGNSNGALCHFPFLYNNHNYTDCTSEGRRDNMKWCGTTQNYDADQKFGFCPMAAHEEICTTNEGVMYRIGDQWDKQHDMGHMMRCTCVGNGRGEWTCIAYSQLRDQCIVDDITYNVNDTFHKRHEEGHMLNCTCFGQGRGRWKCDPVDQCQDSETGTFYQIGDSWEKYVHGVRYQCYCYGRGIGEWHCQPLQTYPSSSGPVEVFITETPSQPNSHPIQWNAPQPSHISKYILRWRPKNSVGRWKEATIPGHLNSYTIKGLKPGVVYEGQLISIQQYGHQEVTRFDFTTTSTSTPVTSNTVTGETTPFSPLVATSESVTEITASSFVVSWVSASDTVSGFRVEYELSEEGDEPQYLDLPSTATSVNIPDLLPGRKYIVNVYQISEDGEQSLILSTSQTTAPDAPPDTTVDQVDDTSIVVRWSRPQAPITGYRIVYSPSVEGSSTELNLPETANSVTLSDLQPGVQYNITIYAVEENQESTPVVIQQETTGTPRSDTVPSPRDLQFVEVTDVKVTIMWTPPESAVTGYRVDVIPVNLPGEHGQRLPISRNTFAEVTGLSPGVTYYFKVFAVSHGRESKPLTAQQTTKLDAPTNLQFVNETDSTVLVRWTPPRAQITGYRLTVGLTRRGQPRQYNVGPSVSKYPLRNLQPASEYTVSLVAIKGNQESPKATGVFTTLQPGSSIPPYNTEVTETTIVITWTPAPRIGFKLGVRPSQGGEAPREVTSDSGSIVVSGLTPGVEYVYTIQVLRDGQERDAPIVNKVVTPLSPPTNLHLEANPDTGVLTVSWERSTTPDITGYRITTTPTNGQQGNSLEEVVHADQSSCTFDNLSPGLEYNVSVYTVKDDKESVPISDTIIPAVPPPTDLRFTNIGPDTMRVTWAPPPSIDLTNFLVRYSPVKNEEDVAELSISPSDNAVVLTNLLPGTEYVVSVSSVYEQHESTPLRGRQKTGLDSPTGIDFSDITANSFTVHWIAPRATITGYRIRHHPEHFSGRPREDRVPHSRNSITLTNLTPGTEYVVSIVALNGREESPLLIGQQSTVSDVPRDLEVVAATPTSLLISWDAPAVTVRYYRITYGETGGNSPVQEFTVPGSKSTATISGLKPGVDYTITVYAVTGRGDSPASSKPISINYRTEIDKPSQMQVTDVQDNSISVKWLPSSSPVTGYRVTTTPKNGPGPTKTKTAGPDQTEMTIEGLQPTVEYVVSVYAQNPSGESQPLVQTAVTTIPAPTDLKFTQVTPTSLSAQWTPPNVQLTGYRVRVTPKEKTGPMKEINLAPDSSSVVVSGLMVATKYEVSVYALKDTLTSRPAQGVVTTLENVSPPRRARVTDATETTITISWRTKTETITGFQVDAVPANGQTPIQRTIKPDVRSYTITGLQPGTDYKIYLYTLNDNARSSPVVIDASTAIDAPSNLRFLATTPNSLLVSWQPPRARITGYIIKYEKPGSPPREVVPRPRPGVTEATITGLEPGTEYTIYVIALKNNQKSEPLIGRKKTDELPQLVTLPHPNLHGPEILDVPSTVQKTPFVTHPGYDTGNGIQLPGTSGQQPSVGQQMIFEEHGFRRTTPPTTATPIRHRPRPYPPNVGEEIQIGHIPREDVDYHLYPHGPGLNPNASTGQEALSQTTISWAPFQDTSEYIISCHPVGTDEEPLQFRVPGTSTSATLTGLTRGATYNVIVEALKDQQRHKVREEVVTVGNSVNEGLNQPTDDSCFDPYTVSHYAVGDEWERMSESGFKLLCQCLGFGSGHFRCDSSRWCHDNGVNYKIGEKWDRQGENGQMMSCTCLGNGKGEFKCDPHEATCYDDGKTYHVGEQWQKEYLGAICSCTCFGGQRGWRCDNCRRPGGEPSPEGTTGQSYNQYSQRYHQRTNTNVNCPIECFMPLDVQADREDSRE
plasma fibronectin (human), sequence (P02751 other isoform, or with tags, fused parts or gaps, chain 2 of 2): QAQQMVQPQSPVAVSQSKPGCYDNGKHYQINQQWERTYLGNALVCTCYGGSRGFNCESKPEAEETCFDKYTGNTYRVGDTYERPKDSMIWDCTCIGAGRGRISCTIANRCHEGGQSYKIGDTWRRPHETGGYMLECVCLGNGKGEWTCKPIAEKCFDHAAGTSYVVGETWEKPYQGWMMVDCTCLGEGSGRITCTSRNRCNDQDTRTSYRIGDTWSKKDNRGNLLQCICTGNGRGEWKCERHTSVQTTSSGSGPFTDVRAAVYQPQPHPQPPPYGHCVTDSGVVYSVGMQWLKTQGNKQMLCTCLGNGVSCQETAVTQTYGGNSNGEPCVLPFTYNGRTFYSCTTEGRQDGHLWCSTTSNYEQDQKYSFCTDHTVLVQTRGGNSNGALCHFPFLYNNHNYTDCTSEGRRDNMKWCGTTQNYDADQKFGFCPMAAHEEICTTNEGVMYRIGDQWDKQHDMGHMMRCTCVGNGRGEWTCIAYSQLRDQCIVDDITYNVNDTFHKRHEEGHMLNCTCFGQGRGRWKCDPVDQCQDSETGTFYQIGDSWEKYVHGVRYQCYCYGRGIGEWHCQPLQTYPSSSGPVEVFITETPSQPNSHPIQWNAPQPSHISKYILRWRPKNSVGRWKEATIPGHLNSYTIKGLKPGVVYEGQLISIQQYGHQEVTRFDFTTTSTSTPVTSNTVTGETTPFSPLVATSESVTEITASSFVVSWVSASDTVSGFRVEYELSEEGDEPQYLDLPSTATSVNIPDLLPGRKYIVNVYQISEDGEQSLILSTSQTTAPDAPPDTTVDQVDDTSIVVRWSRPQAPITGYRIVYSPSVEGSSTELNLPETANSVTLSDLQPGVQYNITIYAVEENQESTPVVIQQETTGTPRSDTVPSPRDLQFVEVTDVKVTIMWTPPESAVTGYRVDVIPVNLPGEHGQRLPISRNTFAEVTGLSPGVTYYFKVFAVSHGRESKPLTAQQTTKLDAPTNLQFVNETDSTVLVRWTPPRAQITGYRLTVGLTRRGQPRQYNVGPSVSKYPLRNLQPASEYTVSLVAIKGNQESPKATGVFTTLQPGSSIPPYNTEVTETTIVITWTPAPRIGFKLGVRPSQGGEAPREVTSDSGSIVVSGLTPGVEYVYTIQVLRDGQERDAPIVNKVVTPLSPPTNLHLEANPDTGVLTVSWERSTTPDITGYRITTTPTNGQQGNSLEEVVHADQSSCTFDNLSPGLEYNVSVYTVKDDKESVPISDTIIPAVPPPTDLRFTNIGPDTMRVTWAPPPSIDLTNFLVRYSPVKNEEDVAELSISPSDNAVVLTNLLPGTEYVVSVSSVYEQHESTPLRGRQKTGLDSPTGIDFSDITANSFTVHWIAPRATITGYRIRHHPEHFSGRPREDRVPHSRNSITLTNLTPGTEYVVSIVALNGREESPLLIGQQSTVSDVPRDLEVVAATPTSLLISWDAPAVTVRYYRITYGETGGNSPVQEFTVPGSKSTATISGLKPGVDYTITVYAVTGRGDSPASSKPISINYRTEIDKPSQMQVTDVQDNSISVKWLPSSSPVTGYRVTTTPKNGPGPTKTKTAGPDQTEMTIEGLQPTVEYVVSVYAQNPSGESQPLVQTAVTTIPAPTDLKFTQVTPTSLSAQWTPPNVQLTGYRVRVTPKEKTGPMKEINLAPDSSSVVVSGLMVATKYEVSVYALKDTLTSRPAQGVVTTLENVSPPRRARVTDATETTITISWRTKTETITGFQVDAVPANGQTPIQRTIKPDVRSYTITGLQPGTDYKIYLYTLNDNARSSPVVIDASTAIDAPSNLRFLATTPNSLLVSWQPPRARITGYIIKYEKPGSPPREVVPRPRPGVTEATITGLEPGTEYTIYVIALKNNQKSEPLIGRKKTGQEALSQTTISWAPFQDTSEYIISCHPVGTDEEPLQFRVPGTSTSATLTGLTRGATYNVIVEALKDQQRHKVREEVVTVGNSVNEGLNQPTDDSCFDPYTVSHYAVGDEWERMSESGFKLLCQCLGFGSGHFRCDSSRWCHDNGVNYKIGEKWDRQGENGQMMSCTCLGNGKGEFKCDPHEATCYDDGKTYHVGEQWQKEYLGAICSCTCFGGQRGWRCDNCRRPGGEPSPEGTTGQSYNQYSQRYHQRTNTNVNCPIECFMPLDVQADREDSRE

Turning to “recombinant protein LIC13086 (natural protein)”, the Kd is 8.9 nM in the test with C4BP (human); 162 nM with C4b (human); 40.3 nM with C5b6 (human); 35.8 nM in the test with C7 (human); 134 nM with C8 (human); 818 nM in the test with C9 (human). Besides, the Kd came out at 320 nM with fibrinogen (human), 18.7 nM with laminin (human), 5.8 nM in [1] and 10.1 nM with plasminogen (human).

The term Kd denotes the constant that tells how readily two partners part at equilibrium.
